B1: EEHEE_rd3_1049 (parent)
chain: TTVKLGDIKVTFDNPEKAKKYAQKLAKIYQLTVHVHGDTIHVK
B2: 5KPH (parent)
chain: EEKRQVKQVAKEKLLEQSPNSKVQVRRVQKQGNTIRVELELRTNGKKENYTVEVERQGNTWTVKRITRT

Variants of: B1
Experiment: folding stability dG (cDNA display proteolysis); higher = more stable
Settings: PBS, room temperature

Folding stability dG [kcal/mol], by site and new letter:
T2: K 1.26; Y 1.72; W 1.6; F 1.67
F12: G -0.438; Q 0.131; R 0.188
A18: N 0.152; C 2.03; D -0.113
K24: W 3.42; F 2.87; T 1.83; G 1.23
K20: Y 1.92; W 2.18; D 1.55
N14: V 1.12
E16: M 1.91; A 1.94; V 1.85; R 1.82
D13: H 1.86; M 2.12
V3: T 0.665; S 0.71; F 0.742
V35: S 1.17
V42: M 1.7; F 1.95; T 0.607; P 0.257; Q 0.328; A 0.602; S 0.478
Q23: E 2.19; M 2.25; A 2.1; C 3.24; L 2.22; W 2.06
K17: D 2.45; C 3.1; Y 1.9; E 2.32; V 2; W 1.93
V10: W 3.21; Q 0.914
K9: T 2.42; Y 2.42; M 2.34
G37: K 1.24; Y 1.24; A 1.28
T1: G 0.959; N 1.1; V 2.14
T11: F 2.51; C 2.98; G 0.999
D38: A 1.94; V 1.57; M 1.97; P 1.42; Y 1.47
K43: D 1.61; E 1.91; G 2.51
L31: N 0.271; H 0.811; F 1.49; V 1.08; Y 1.31
V33: Y 1.54; W 1.85; H 0.305; C 2.12; T 1.11; F 1.6
H41: C 2.41; P 0.283; K 1.1; L 2.17
I8: W 3.22; F 2.95; C 3.42; M 2.1; P 0.237
Y21: Q -0.123
Y29: W 1.67; N 0.582; V 0.558; G 0.581; S 0.482; M 1.26; Q 0.374; I 0.716; K 0.669
A26: P -0.282; Y 1.01; G 0.898; I 1.09; E 0.645
H36: C 3.31; L 2.34
K4: D 1.09; P 0.652; C 3.22; N 1.34; R 2.18
Q30: N 2.58; D 2.08; Y 1.65; R 1.98; M 1.92
D7: F 2.83; Q 2.5; Y 2.94
L25: F 0.868; V 1.26; G -0.255; E -0.772; M 1.55; D -0.607
K27: E 2.04; A 2.03; R 2.27
H34: Y 2.39; W 2.15; N 1.34; S 2.03; A 1.9
L5: N 0.735; Q 0.604; I 2.79; W 2.83; E 0.422
A22: S 0.584; Q 0.388; G 0.327; L 1.47; D -0.543
I28: V 1.56; A 1.65; M 2.36; D 1.08
I40: P 0.463; Y 1.66
K19: P -0.502; T 1.55; R 2.23; V 1.97
T32: V 2.21; I 2.01; R 1.4; M 1.75; E 1.82; K 1.63; P 0.612; D 1.33; A 1.79
T39: K 0.943; W 1.55; R 0.835; G 0.726; N 1.06; Q 1.36
P15: K 1.78; L 2.08; H 2.04; Q 1.65

Variants of: B2
Experiment: as above
Settings: PBS, room temperature

Folding stability dG [kcal/mol]: each site, then its substitutions
K64: Q 3.56; D 2.18; W 3.08; M 4.28; N 3.48; L 4.27; P 2.28; C 3.62; G 3.25; V 4.3; T 4.29; Y 3.5; A 3.83; E 2.86; S 3.94; F 3.7; I 4.47; R 3.94; H 3.25
T67: N 3.32; M 3.98; H 3.62; G 3.01; Y 4.38; W 4.45; P 1.34; K 3.55; L 4.01; I 4.09; A 3.46; Q 3.54; R 3.73; F 4.23; S 3.68; C 3.68; D 3.3; E 3.64; V 3.96
T62: C 3.48; L 4.03; N 3.62; F 4.24; K 3.96; H 3.93; P 1.79; D 3.13; V 4.27; I 4.26; Y 4.57; M 3.97; E 3.82; Q 3.92; R 3.9; G 3.48; W 4.24; A 4.05; S 3.75
R68: M 3.95; N 3.89; L 4.21; P 3.54; K 3.99; Y 3.32; W 3.07; Q 3.73; S 3.21; T 3; D 2.65; V 3.46; G 2.87; A 3.4; E 3.13; H 3.59; C 3.34; F 3.53; I 3.67
I66: R 1.28; Q 1.95; D 0.142; A 2.2; M 3.38; F 3.04; S 2.1; W 3.15; H 1.67; Y 2.85; V 3.94; G 0.993; K 1.54; C 2.88; E 1.1; P 1.72; L 3.25; N 1.2
T69: Q 3.9; D 3.73; Y 4; P 2.87; G 3.7; N 3.87; M 4.13; W 4.08; F 3.52; H 4.21; A 3.68; L 3.98; V 3.86; R 3.89; C 3.56; S 3.75; I 3.99; E 3.82; K 3.73
V63: Y 2.01; L 2.88; N 0.507; A 3.02; K 0.466; D 0.956; I 3.47; C 2.96; R 0.762; P 2.8; T 2.51; H 1.18; M 2.06; E 1.26; G 1.35; Q 1.16; S 1.81; W 2.07; F 2.78
W61: K 0.975; V 2.9; T 2.21; M 3.21; S 2; P 1.94; Q 1.88; R 1.41; N 1.83; L 3.64; Y 4.03
R65: I 3.43; S 4.29; M 3.84; W 3.63; Q 3.84; H 3.58; T 4.05; C 3.44; V 3.54; F 3.53; Y 3.7; E 3.61; K 4.01; N 3.73; G 3.6; D 3.59; L 3.67; A 4.27; P 1.4
